Measurements from article PMC12412656.

How the values were obtained:
[1] = target: RIAM TBS1 (4-30C) synthetic peptide, fluorescein-labelled; test: fluorescence polarisation; R7R8 serially diluted (maximum 160 μM) into 0.5 μM fluorescein-labelled peptide; PBS with 1 mM TCEP and 0.02% Tween-20; room temperature; triplicate; one-site total binding model
[2] = target: DLC1 TBS (465-489C) synthetic peptide, fluorescein-labelled; test: as above
[3] = target: talin 1 R7R8 domain protein (mouse) (mouse); test: fluorescence polarisation; competition: R7R8 (30 μM) pre-incubated with DLC1 TBS-F (1 μM) 20 min at room temperature, diluted 1:2 into unlabeled peptide at twofold increasing concentrations up to 160 μM; one-site Ki fit

Row | Kd [1] | Kd [2] | Ki [3] | Molecule
1 | 9.21 µM | 4.92 µM | – | talin 1 R7R8 domain protein (mouse) (domain or fragment)
2 | – | – | 90 µM | SEDIDQMFSTLLGEMDLLTQSLGVDTC [RIAM TBS1 (4-30C) synthetic peptide, unlabeled]
